US20240327530A1 (ICHNOS SCIENCES, published 2024)

Experiments:
[1] = target: T1, Human IL-1RAP, membrane-bound on human cells (HaCaT, dermal fibroblasts, neutrophils, PBMC, whole blood) (human, UniProt Q9NPH3 21-570); assay: flow cytometry on HaCaT cell line, nonlinear sigmoidal regression
T1 construct: Endogenous protein on cells
T1 sequence: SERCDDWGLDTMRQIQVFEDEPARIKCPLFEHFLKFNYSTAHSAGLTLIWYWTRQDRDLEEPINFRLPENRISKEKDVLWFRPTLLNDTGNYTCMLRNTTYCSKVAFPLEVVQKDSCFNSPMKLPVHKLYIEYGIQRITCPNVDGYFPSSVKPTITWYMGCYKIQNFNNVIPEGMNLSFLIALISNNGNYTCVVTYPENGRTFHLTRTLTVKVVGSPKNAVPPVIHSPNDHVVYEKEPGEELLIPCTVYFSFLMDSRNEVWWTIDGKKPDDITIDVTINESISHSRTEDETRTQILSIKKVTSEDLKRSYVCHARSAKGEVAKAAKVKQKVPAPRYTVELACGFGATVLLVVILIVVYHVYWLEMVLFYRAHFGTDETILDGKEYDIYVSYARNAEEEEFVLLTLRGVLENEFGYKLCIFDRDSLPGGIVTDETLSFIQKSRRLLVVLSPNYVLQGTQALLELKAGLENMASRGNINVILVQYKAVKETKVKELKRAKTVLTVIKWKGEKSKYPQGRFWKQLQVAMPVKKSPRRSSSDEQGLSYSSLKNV
Protocol: In brief, cells were harvested, counted, and plated at 50,000 cells/well in a 96-well round-bottom plate. The plate was centrifuged at 350 g for 3 minutes and the cells were resuspended in 50 μl of FACS® buffer (PBS (1×)+2.5% FCS+2 mM EDTA+0.05% NaN₃) containing various concentrations (ranging from 50 to 0.00003 μg/ml) of either anti-human IL-1RAP_candidate_1 or Isotype control_5 antibodies. Stained cells were incubated for 30 minutes at 4° C., washed twice with FACS® buffer at 350 g for 3 min and resuspended in […] of a monoclonal anti-human IgG PE-Cyanine7 secondary antibody (Biolegend, 409316) diluted 1/200 in FACS® buffer. Cells were then washed twice and resuspended in 200 μl of FACS® buffer containing SYTOX® Green dead cell stain (THERMO FISHER […]®, S34860) and samples were acquired on a CYTOFLEX® instruments (Beckman Coulter). The cells were gated based on size on FSC vs SSC and analyzed for PE-Cyanine7-geometric mean (geomean) fluorescence intensity using FLOWJO® software. Finally, relative geomean fluorescence intensity was calculated by subtracting fluorescence of anti-human IL-1RAP_candidate_1 per fluorescence of Isotype control_5. As depicted in FIGS. 6A, 6B, 6C, 6D, and 6E, anti-human IL-1RAP_candidate_1 antibody recognizes membrane-bound IL-1RAP expressed on HaCaT cell line and all primary cells. Multiple independent experiments were performed using multiple donors. […]

[2] = target: T2, Recombinant human IL-1RAP-ECD(S21-E359)-avi-his protein (human, UniProt Q9NPH3 21-359); assay: SPR, IgG1 LALA captured on anti-human IgG Fc CM5 chip, human IL-1RAP-avi-his as analyte in a concentration series, 1:1 fit, one representative replicate
T2 construct: Biotinylated where loaded on streptavidin; also called human IL-1RAP-ECD-Avi-His; recombinant human IL-1RAP-avi-his protein
T2 sequence: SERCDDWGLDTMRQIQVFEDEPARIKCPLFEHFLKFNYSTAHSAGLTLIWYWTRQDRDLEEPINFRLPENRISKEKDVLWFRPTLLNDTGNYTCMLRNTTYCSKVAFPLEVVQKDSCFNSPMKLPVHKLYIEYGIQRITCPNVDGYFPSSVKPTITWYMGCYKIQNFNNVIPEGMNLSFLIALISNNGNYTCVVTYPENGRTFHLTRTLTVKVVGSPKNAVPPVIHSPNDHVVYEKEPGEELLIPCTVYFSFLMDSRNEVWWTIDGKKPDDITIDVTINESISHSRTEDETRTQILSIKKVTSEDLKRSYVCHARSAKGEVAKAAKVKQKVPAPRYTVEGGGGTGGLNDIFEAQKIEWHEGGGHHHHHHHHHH
Protocol: Anti-IL-1RAP-C8-RecC-ES IgG1 LALA was immobilized on a Series S CM5 sensor CHIP coupled with anti-human IgG Fc. Human IL-1RAP-avi-his or cynomolgus monkey IL-1RAP-avi-his was injected over immobilized IgG1 LALA in concentration series in HBS-EP+ buffer. One representative replicate for human IL-1RAP and cynomolgus monkey IL-1RAP is presented. Plots are showing data expressed as number of resonance units (abbreviated RU; Y axis) vs. time (s, X axis). Dotted lines represent the measured data while solid lines represent simulated fits. KD: equilibrium dissociation constant; Ka: association constant; Kd: dissociation constant.
Surface plasmon resonance (SPR) was used to measure the binding affinities of the human IgG1 LALA molecules for human and cynomolgus monkey IL-1RAP. Affinities were measured on a BIACORE™ T200 instrument (BIACORE™, GE […]®) at 25° C. and analyzed with the BIACORE™ T200 Evaluation Software (v3.1). Measurements were performed on Series S CM5 sensor chips (BIACORE™ T200, BIACORE™, GE […]®, catalog no. BR100530) coupled with anti-human IgG Fc (BIACORE™, GE […]®, catalog no. BR100839) using a commercial amine coupling kit (BIACORE™, GE […]®, catalog no. BR100050). SPR measurements were performed with recombinant human IL-1RAP-avi-his protein produced in house (SEQ ID NO. 1) or recombinant cynomolgus monkey IL-1RAP-avi-his protein produced in house (SEQ ID NO. 2). The affinities to human and cynomolgus monkey IL-1RAP were assessed by immobilizing anti-IL-1RAP IgG1 LALA molecules and using IL-1RAP proteins as analyte. Around 150 RU of human IgG1 LALA were captured on fc2 of a Series S CM5 sensor chip coupled with anti-human IgG Fc. Recombinant human IL-1RAP-avi-his protein or recombinant cynomolgus monkey IL-1RAP-avi-his protein was injected in multi cycle kinetic at different concentrations ranging from 0.14 to 100 nM, in HBS-EP+ buffer (BIACORE™, GE […]®, catalog no. BR100669) at a flow rate of 30 μl/min for 3 min on fc1 and fc2 (fc1 being used as reference). Dissociation was monitored for 12 min.

B1: Anti-IL-1RAP-C8-RecC-ES-IgG1LALA (antibody, V domains shown)
VH: QVQLVQSGAEVKKPGSSVKVSCKASGSPAEPYAIQWVRQAPGQGLEWMGYIIPSLGGYDYAQKFQGRVTITADESTSTAYMELSSLRSEDTAVYYCARGQTLYESGRQFDIWGQGTLVTVSS
VL: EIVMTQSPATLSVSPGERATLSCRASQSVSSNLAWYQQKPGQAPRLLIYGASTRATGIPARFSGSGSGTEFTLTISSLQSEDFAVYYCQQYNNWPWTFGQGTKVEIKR
notes: also called ISB 880-C8-recC-ES
Kd [1]: 0.75 nM
Kd [2]: 0.267 nM
koff [2]: 0.000169 s⁻¹
kon [2]: 633000 M⁻¹ s⁻¹
